Legend:
[1] = biological target: adaptor protein 2 (AP-2) complex; assay: ELISA-based peptide binding assay; conditions: read off a plot
[2] = biological target: HLA-E (wild type, EGFP at the C-terminus) (human)

Substance | percentage of internalized HLA-E that reappeared on the cell surface within 1 h (recycling assay, HEK293T, peptide pulsing 50 µM) [2] | other results
CD1b cytoplasmic tail peptide (CD1) (from UniProt P29016) Y5A | – | response (absorbance 450) ([1]; parent: est. 0.86): 0.64
HLA-E cytoplasmic tail peptide (E) (from UniProt P13747) K310R; K322Q; W325S | – | response (absorbance 450) ([1]; parent: est. 1.5): 0.83
Mtb44 peptide | 18% | –
RL9 peptide | 15% | –
VL9 peptide | 25% | –
